Experimental findings from patent US20140147887A1, “NOVEL 12 ALPHA-HYDROXYSTEROID DEHYDROGENASES, PRODUCTION AND USE THEREOF” (PharmaZell GmbH, priority 2006, published 2014) are described below.

The assay is described as follows: Standard 12α-HSDH activity determination (NADP+-dependent oxidation of cholic acid, absorption at 340 nm). Format: biochemical. Details: unit not given here. Particulars: cell lysate. As to the method: The activity is defined as follows: 1 U of the enzyme corresponds to the amount of enzyme which catalyzes the reaction of 1 μmol/min of a 5 mM cholic acid solution in potassium phosphate buffer (50 mM, pH 8.0) at room temperature (i.e. about 20° C.-23° C.).
For the activity determination, 790 μl of potassium phosphate buffer (50 mM, pH 8.0), […] of cholic acid (50 mM in potassium phosphate buffer (50 mM, pH 8.0)) and 10 μl of enzyme solution to be measured were mixed in a cuvette. 100 μl of NADP^+ (2.5 mM) was added at the start of the reaction and the increase in the absorption at 340 nm was determined photometrically. The gradient over 30 s was determined at RT. Determination of the activity took place according to the Lambert-Beer's law.

Setting [1] is: E. coli BL21 (DE3), expression period 4 h.
Setting [2] is: E. coli BL21 (DE3), expression period 22 h.
The mark [3] stands for this setting: E. coli Rosetta (DE3), expression period 4 h.
The mark [4] stands for this setting: E. coli Rosetta (DE3), expression period 22 h.

B1: HSDH_short: N-terminally truncated short version of 12α-HSDH from Clostridium sp. group P strain 48-50, SEQ ID NO: 4 (protein)
chain: IFDGKVAIITGGGKAKSIGYGIAVAYAKEGANLVLTGRNEQKLLDAKEELERLYGIKVLPLAVDVTPSDESEDRVKEAVQKVIAEFGRIDVLINNAQASASGIPLSMQTKDHFDLGIYSGLYATFYYMRECYPYLKETQGSVINFASGAGLFGNVGQCSYAAAKEGIRGLSRVAATEWGKDNINVNVVCPLAMTAQLENFKLSYPEAYEKNLRGVPMGRFGDPELDIGRVCVQLGSPDFKYMSGETLTLEGGMGQRP
With B1, the “Activity [of culture medium]” value runs as follows: under setting [1], 12800; under setting [2], 33000; under setting [3], 3400; under setting [4], 24300.

B2: HSDH_long: long version of 12α-HSDH from Clostridium sp. group P strain 48-50, SEQ ID NO: 2, recombinantly expressed in E. coli (protein, listed as Clostridium sp.)
chain: MDFIDFKEMGRMGIFDGKVAIITGGGKAKSIGYGIAVAYAKEGANLVLTGRNEQKLLDAKEELERLYGIKVLPLAVDVTPSDESEDRVKEAVQKVIAEFGRIDVLINNAQASASGIPLSMQTKDHFDLGIYSGLYATFYYMRECYPYLKETQGSVINFASGAGLFGNVGQCSYAAAKEGIRGLSRVAATEWGKDNINVNVVCPLAMTAQLENFKLSYPEAYEKNLRGVPMGRFGDPELDIGRVCVQLGSPDFKYMSGETLTLEGGMGQRP
As to B2, the “Activity [of culture medium]” value was determined as 12700 under setting [1], 36800 under setting [2], 3100 under setting [3] and 19500 under setting [4].
